Results from publication PMC4964977 (Biochemical Journal, 2016).
Square brackets hold non-standard residues; d marks the D form. Ends that are not written are not given here. * marks the point of attachment. Biotin = O=C1N[C@H]2[C@H](CS[C@H]2CCCCC(=O)*)N1; pS = N[C@@H](COP(=O)(O)O)C(=O)O

What was measured:
[1] = target: T1, PLM 20-mer RCKFNQQQRTGEPDEEEGTF (R41–F60), on membrane (mouse, covalently linked to the membrane); assay: peptide or protein array
T1 peptide: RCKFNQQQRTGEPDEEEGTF

[2] = target: T2, native NCX1(301–320) peptide synthesized on membrane (rat, covalently linked to the membrane); assay: peptide or protein array
T2 peptide: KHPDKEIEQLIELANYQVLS

Binder | binding result [1] | binding result [2]
Biotin-KHPDKEIEQLIELANYQVLS [biotin–NCX1(301–320)] | binds | 
Biotin-KRCRCKFNQQQRTGEPDEEEGTFRSSIRRL[pS]SRRR (cysteine pairing not given here) [biotin–pSer68-PLMcyt] |  | binds
Biotin-KQRGMIIEHEGDRPASKTEI [biotin–NCX1(235–254)] | binds | 
Biotin-ARILKELKQKHPDKEIEQLI [biotin–NCX1(292–311)] | binds | 
